Patent publication US20250230244A1 (University of Texas, published 2025)
Blank lines part the entries; values can stand above or below the binder they belong to.

Key:
B7-H3 peptide 8 = target: T1, B7-H3 peptide 8 (human); assay: biolayer interferometry (Octet), epitope mapping table [panel D, row Peptide 8]
T1 peptide: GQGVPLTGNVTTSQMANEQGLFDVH
Experimental: (§1) The Octet RED384 System (FortdBio) was used to further characterize the chimeric and murine clones. The kinetics of the clones were tested by measuring the interaction between the antibody and its target by bio-layer interferometry technology.
(§2) The inventors generated 10 peptides from the extracellular domain of B7-H3 with a span of 25 amino acids and an overlap of 5 amino acids with each subsequent peptide.

B7-H3 peptide 3 [1] = target: T2, B7-H3 peptide 3 (human); assay: biolayer interferometry (Octet) traces, concentrations not printed [Peptide 3, column T-1A5]
T2 peptide: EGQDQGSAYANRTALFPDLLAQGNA

B7-H3 peptide 6 [2] = target: T3, B7-H3 peptide 6 (human); assay: biolayer interferometry (Octet) traces, concentrations not printed [continued), Peptide 6, left column]
T3 peptide: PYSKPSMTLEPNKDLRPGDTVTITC
Experimental: as §1, §2

B7-H3 peptide 5 [3] = target: T4, B7-H3 peptide 5 (human); assay: biolayer interferometry (Octet), number beside the raw traces [panel D, T-1A5-peptide 5]
T4 construct: Said to lie in the IgV domain spanning through the FG loop
T4 peptide: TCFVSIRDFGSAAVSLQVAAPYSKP

B7-H3 peptide 5 [4] = target: T4, B7-H3 peptide 5; assay: biolayer interferometry (Octet), epitope mapping with B7-H3 peptides [panel D, row Peptide 5]
Experimental: as §1, §2

B7-H3 peptide 10 = target: T5, B7-H3 peptide 10 (human); assay: biolayer interferometry (Octet), epitope mapping table [panel D, row Peptide 10]
T5 peptide: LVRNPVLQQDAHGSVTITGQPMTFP
Experimental: as §1, §2

B7-H3 peptide 2 [5] = target: T6, B7-H3 peptide 2 (human); assay: biolayer interferometry (Octet) traces, concentrations not printed [Peptide 2, column T-1A5]
T6 peptide: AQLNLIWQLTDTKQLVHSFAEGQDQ
Experimental: as §1, §2

B7-H3 peptide 1 [6] = target: T7, B7-H3 peptide 1 (human); assay: biolayer interferometry (Octet), epitope mapping table [panel D, row Peptide 1]
T7 peptide: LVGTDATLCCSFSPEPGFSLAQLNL
Experimental: as §1, §2

B7-H3 peptide 4 [7] = target: T8, B7-H3 peptide 4 (human); assay: biolayer interferometry (Octet) traces, concentrations not printed [Peptide 4, column T-1A5]
T8 peptide: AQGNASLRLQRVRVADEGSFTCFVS

B7-H3 peptide 7 = target: T9, B7-H3 peptide 7 (human); assay: biolayer interferometry (Octet), epitope mapping table [panel D, row Peptide 7]
T9 peptide: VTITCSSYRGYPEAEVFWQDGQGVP
Experimental: as §1, §2

B7-H3 peptide 4 [8] = target: T8, B7-H3 peptide 4; assay: biolayer interferometry (Octet) traces, concentrations not printed [Peptide 4, column ChT-1A5]
Experimental: as §1, §2

B7-H3 peptide 2 [9] = target: T6, B7-H3 peptide 2; assay: biolayer interferometry (Octet) traces, concentrations not printed [Peptide 2, column ChT-1A5]
B7-H3 peptide 3 [10] = target: T2, B7-H3 peptide 3; assay: biolayer interferometry (Octet) traces, concentrations not printed [Peptide 3, column ChT-1A5]
B7-H3 peptide 1 [11] = target: T7, B7-H3 peptide 1; assay: biolayer interferometry (Octet) traces, concentrations not printed [Peptide 1, column ChT-1A5]
B7-H3 peptide 6 [12] = target: T3, B7-H3 peptide 6; assay: biolayer interferometry (Octet), epitope mapping table [panel D, row Peptide 6]
Experimental: as §1, §2

- binding result (B7-H3 peptide 8): no binding
- binding result (B7-H3 peptide 3 [1]): no binding
- binding result (B7-H3 peptide 6 [2]): no binding
- Kd (B7-H3 peptide 5 [3]): 151 nM
- Kd (B7-H3 peptide 5 [4]): 151 nM
- binding result (B7-H3 peptide 10): no binding
- binding result (B7-H3 peptide 2 [5]): no binding
- binding result (B7-H3 peptide 1 [6]): no binding
- binding result (B7-H3 peptide 4 [7]): no binding
- binding result (B7-H3 peptide 7): no binding
B1: anti-B7-H3 monoclonal antibody T-1A5 (mouse, isotype IgG1) (antibody)
heavy: QVQLQQSGAELVKPGASVKLSCKASGYTFTSYDINWVRQRPEQGLEWIGWIFPGDDTTNYNENFKGKATLTADKSSSTAYMQLTRLTSEDSAVFFCARSVGFDYWGQGTTLTVSSAKTTPPSVYPLAPGSAAQTNSMVTLGCLVKGYFPEPVTVTWNSGSLSSGVHTFPAVLQSDLYTLSSSVTVPSSTWPSETVTCNVAHPASSTKVDKKIVPRDCGCKPCICTVPEVSSVFIFPPKPKDVLTITLTPKVTCVVVDISKDDPEVQFSWFVDDVEVHTAQTQPREEQFNSTFRSVSELPIMHQDWLNGKEFKCRVNSAAFPAPIEKTISKTKGRPKAPQVYTIPPPKEQMAKDKVSLTCMITDFFPEDITVEWQWNGQPAENYKNTQPIMDTDGSYFVYSKLNVQKSNWEAGNTFTCSVLHEGLHNHHTEKSLSHSPGK
light: QIVLIQSPAIMSASPGEKVTMTCSASSSISYMYWYQQKPGTSPKRWIFETSKLASGVPARFSGSGSGTSYSLTISSMEAEDAATYYCHQRSSYPTFGGGTKLEIKRADAAPTVSIFPPSSEQLTSGGASVVCFLNNFYPKDINVKWKIDGSERQNGVLNSWTDQDSKDSTYSMSSTLTLTKDEYERHNSYTCEATHKTSTSPIVKSFNRNEC
notes: also called T-1A5A10; mAb T-1A5

- binding result (B7-H3 peptide 4 [8]): no binding
- binding result (B7-H3 peptide 2 [9]): no binding
- binding result (B7-H3 peptide 3 [10]): no binding
- binding result (B7-H3 peptide 8): no binding
- binding result (B7-H3 peptide 1 [11]): no binding
- binding result (B7-H3 peptide 10): no binding
- binding result (B7-H3 peptide 6 [12]): no binding
- binding result (B7-H3 peptide 7): no binding
B2: human-mouse chimeric anti-B7-H3 antibody ChT-1A5 (antibody, human IgG1, kappa)
heavy: not shown
light: QIVLIQSPAIMSASPGEKVTMTCSASSSISYMYWYQQKPGTSPKRWIFETSKLASGVPARFSGSGSGTSYSLTISSMEAEDAATYYCHQRSSYPTFGGGTKLEIKRTVAAPSVFIFPPSDEQLKSGTASVVCLLNNFYPREAKVQWKVDNALQSGNSQESVTEQDSKDSTYSLSSTLTLSKADYEKHKVYACEVTHQGLSSPVTKSFNRGEC
notes: also called chimeric T-1A5 antibody
